Measurements: US20200199241A1 (Chugai, published 2020)
Read-outs that look alike come from different tables or passages of the source.

T1: human FcγRIIa(R) (human, UniProt P12318 36-217)
T1 construct: also called hFcgRIIa(R); FcγRIIa type R
T1 chain: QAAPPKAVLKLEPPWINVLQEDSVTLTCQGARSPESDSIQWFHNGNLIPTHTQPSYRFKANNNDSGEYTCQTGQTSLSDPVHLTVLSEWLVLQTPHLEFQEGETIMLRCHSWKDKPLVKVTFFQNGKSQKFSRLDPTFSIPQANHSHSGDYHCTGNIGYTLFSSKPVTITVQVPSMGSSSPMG

T2: human FcγRIIa(H) (human, UniProt P12318 36-217)
T2 construct: also called hFcgRIIa(H); FcγRIIa type H
T2 sequence: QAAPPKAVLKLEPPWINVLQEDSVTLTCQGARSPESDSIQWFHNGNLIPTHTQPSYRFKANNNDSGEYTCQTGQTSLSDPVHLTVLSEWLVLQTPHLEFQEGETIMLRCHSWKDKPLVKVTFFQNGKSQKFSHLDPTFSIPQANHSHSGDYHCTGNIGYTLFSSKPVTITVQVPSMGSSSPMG

T3: mouse FcγRIV (mouse, UniProt A0A0B4J1G0 21-203)
T3 construct: bought; also called mFcgRIV; mFcgR IV; the vendor's purification tag not given
T3 sequence: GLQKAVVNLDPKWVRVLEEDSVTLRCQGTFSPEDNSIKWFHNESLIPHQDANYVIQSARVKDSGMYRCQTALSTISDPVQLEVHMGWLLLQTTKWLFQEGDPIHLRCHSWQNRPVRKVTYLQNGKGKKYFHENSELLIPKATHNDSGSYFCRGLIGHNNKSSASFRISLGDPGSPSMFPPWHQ

T4: mouse FcγRIIb (mouse, UniProt P08101 30-207, limits assumed)
T4 construct: bought; also called mFcgRIIb; mFcgR IIb
T4 sequence (looked up): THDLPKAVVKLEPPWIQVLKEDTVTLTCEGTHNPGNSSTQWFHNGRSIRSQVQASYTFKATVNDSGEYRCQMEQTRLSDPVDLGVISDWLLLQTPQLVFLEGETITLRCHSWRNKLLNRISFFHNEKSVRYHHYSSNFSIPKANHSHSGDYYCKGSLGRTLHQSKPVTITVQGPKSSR

T5: mouse FcγRIII (mouse, UniProt P08508 31-215)
T5 construct: bought; also called mFcgRIII; mFcgR III
T5 sequence (looked up): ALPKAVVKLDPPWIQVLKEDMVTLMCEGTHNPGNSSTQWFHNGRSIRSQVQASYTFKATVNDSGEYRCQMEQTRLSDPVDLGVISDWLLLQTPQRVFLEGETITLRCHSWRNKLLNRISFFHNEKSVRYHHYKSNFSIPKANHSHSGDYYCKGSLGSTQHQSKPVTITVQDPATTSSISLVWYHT

T6: FcγRIIb (human, UniProt P31994 43-217, limits assumed)
T6 construct: SPR analyte; also called FcγIIB; CD32
T6 sequence: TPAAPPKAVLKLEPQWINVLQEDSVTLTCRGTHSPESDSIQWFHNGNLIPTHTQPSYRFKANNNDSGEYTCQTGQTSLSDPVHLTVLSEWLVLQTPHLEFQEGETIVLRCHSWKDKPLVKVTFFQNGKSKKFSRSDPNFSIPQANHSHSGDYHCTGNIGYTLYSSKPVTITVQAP

T7: FcγRIIa type H (human, UniProt P12318 36-217)
T7 construct: SPR analyte; also called FcγRIIaH
T7 sequence: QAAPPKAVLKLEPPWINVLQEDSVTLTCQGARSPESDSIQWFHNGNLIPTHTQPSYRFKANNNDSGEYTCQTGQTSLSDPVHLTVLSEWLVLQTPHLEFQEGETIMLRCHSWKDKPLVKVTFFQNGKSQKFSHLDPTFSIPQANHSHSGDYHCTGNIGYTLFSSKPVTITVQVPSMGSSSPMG

T8: FcγRIIa type R (human, UniProt P12318 36-217)
T8 construct: SPR analyte; also called FcγRIIaR; FcγRIIa(R)
T8 chain: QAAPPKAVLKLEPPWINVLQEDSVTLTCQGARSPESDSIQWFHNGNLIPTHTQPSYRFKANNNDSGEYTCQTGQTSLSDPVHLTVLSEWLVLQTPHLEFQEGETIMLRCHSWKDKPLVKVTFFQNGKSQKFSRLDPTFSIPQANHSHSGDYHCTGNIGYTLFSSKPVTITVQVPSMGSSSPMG

T9: mouse FcγRI (mouse, UniProt P26151 25-297)
T9 construct: bought; also called mFcgRI; mFcgR 1
T9 sequence (looked up): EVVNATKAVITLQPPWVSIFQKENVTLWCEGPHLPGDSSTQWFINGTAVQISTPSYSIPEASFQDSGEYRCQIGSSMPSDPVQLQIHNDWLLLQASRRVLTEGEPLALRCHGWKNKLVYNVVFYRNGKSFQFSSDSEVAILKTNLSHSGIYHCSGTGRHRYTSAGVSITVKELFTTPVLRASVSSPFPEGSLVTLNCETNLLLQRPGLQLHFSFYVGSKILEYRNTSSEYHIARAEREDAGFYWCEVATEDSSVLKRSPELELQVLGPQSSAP


Experiments:
[1] = biological target: T10, human FcRn (soluble human FcRn complexed with β2-microglobulin) (human, UniProt P61769 21-119, limits assumed); assay: SPR, antibody captured by Protein L, human FcRn as analyte, pH 7.0, 25 C
T10 construct: also called hFcRn

[2] = biological target: T11, human FcγRIIIa(V) (human, UniProt P08637 17-208, limits assumed); assay: SPR, antibody captured by Protein L, human FcγR as analyte, pH 7.4, 25 C;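 note: biacore T100 or T200 with Protein L amine-coupled on a CM4 chip, FcγRs diluted in ACES saline with polysorbate 20, buffer-only injection as blank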
T11 construct: also called hFcgRIIIa(V); allotype V158
T11 sequence (P08637 other isoform, or with tags, fused parts or gaps limits assumed): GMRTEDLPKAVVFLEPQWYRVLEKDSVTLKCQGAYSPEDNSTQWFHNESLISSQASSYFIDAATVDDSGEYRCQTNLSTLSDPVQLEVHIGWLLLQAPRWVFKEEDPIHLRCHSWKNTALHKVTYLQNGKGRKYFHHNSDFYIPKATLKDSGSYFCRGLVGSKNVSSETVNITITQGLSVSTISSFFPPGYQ

[3] = biological target: T12, human FcγRIa (human, UniProt P12314 16-292, limits assumed); assay: as above
T12 construct: also called hFcgRIa; hFcgRI
T12 sequence (P12314 16-292 limits assumed): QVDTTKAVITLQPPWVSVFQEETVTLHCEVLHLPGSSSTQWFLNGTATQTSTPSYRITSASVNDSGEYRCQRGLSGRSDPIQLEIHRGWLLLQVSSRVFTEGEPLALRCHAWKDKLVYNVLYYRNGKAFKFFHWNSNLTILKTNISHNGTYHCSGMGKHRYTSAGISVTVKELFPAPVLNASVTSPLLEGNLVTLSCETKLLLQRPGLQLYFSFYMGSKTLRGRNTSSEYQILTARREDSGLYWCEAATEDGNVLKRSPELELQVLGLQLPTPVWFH

[4] = biological target: T1, human FcγRIIa(R); assay: as above
[5] = biological target: T2, human FcγRIIa(H); assay: as above
[6] = biological target: T10, human FcRn (soluble human FcRn …); assay: SPR, antibody captured by Protein L, human FcRn as analyte, pH 7.0, 25 C; remark: listed apart in the source
[7] = biological target: T3, mouse FcγRIV; assay: SPR, antibody captured by Protein L, mouse FcγR as analyte, pH 7.4, 25 C; design: unit not given here
[8] = biological target: T4, mouse FcγRIIb; assay: as above; design: unit not given here
[9] = biological target: T5, mouse FcγRIII; assay: as above; design: unit not given here
[10] = biological target: T6, FcγRIIb; assay: ratio of SPR KDs; reference IL6R-B3/IL6R-L
[11] = biological target: T7, FcγRIIa type H; assay: ratio of SPR KDs; stronger receptor here FcγRIIaH; reference IL6R-B3/IL6R-L (FcγRIIaH)
[12] = biological target: T6, FcγRIIb; assay: ratio of SPR KDs: KD for FcγRIIaH over KD for FcγRIIb
[13] = biological target: T7, FcγRIIa type H; assay: SPR (Biacore), antibody captured, FcγR analyte
[14] = biological target: T13, FcγRIIIa type V (human, UniProt P08637 17-208, limits assumed); assay: SPR (Biacore), antibody captured, FcγR analyte
T13 construct: SPR analyte; allotype V158 was used here; also called FcγRIIIaV; FcγRIIIa(V)
T13 sequence (P08637 other isoform, or with tags, fused parts or gaps limits assumed): as the sequence (P08637 other isoform, or with tags, fused parts or gaps limits assumed) above

[15] = biological target: T6, FcγRIIb; assay: SPR (Biacore), antibody captured, FcγR analyte
[16] = biological target: T14, FcγRIa (human, UniProt P12314 16-292, limits assumed); assay: SPR (Biacore), antibody captured, FcγR analyte
T14 construct: SPR analyte; also called CD64
T14 sequence (P12314 16-292 limits assumed): as the sequence (P12314 16-292 limits assumed) above

[17] = biological target: T8, FcγRIIa type R; assay: SPR (Biacore), antibody captured, FcγR analyte
[18] = biological target: T6, FcγRIIb; assay: ratio of SPR KDs: KD for FcγRIIaR over KD for FcγRIIb
[19] = biological target: T3, mouse FcγRIV; assay: SPR (Biacore T100/T200): FcγR injected over the antibody held by mouse FcRn immobilised on a CM4 chip (simultaneous binding), pH 7.4, 25 C
[20] = biological target: T4, mouse FcγRIIb; assay: as above
[21] = biological target: T9, mouse FcγRI; assay: as above
[22] = biological target: T5, mouse FcγRIII; assay: as above

Row | KD(IIb) of the parent polypeptide/KD(IIb) of altered polypeptide [10] | KD of the stronger of FcγRIIaR/FcγRIIaH binding of the variant / that of the parent polypeptide [11] | KD(IIaH)/KD(IIb) [12] | Kd [13] [nM] | Kd [14] [nM] | Kd [15] [nM] | Kd [16] [nM] | Kd [17] [nM] | KD(IIaR)/KD(IIb) [18] | Binder | other results
1 |  |  |  |  |  |  |  |  |  | antibody with VH3-IgG1-F1326 heavy chain and L(WT)-CK light chain (antibody, L234A/L235A/T250V/M252Y/T307Q/V308P/Q311A/N434Y/Y436V; copies: 2 + 2) heavy: QVQLQESGPGLVKPSETLSLTCAVSGHSISHDHAWSWVRQPPGEGLEWIGFISYSGITNYNPSLQGRVTISRDNSKNTLYLQMNSLRAEDTAVYYCARSLARTTAMDYWGEGTLVTVSSASTKGPSVFPLAPSSKSTSGGTAALGCLVKDYFPEPVTVSWNSGALTSGVHTFPAVLQSSGLYSLSSVVTVPSSSLGTQTYICNVNHKPSNTKVDKKVEPKSCDKTHTCPPCPAPEAAGGPSVFLFPPKPKDVLYISRTPEVTCVVVDVSHEDPEVKFNWYVDGVEVHNAKTKPREEQYNSTYRVVSVLQPLHADWLNGKEYKCKVSNKALPAPIEKTISKAKGQPREPQVYTLPPSRDELTKNQVSLTCLVKGFYPSDIAVEWESNGQPENNYKTTPPVLDSDGSFFLYSKLTVDKSRWQQGNVFSCSVMHEALHYHVTQKSLSLSP light: not shown | Kd [1]: 11 nM; BINDING AMOUNT (RU) [2]: 61.6 RU; BINDING AMOUNT (RU) [3]: 265 RU; BINDING AMOUNT (RU) [4]: 11.7 RU; BINDING AMOUNT (RU) [5]: 11.4 RU; Kd [6]: 11 nM; binding amount [7]: 85.6; binding amount [8]: 19.2; binding amount [9]: 532
2 | 1 | 1 | 0.2 | 770 | 330 | 3100 | 0.42 | 1100 | 0.3 | IL6R-B3/IL6R-L (antibody, human IgG1, IL6R-G1d with K439E (EU numbering); also called parent polypeptide) heavy: not shown light: DIQMTQSPSSLSASVGDRVTITCRASQDISSYLNWYQQKPGKAPKLLIYYTSRLHSGVPSRFSGSGSGTDFTFTISSLQPEDIATYYCQQGNTLPYTFGQGTKVEIK | 
3 | 1.2 | 0.9 | 0.3 | 670 | 350 | 2600 | 0.32 | 1000 | 0.4 | IL6R-G1d/IL6R-L (antibody, human IgG1, Anti-human IL-6 receptor antibody with the G1d constant region; also called IgG1 (IL6R-G1d)) heavy: not shown light: DIQMTQSPSSLSASVGDRVTITCRASQDISSYLNWYQQKPGKAPKLLIYYTSRLHSGVPSRFSGSGSGTDFTFTISSLQPEDIATYYCQQGNTLPYTFGQGTKVEIK | 
4 |  |  |  |  |  |  |  |  |  | Fv4-IgG1-F20 (VH3-IgG1-F20 and VL3-CK) (antibody, copies: 2 + 2) heavy: not shown light: DIQMTQSPSSLSASVGDSVTITCQASTDISSHLNWYQQKPGKAPELLIYYGSHLLSGVPSRFSGSGSGTDFTFTISSLEAEDAATYYCGQGNRLPYTFGQGTKVEIERTVAAPSVFIFPPSDEQLKSGTASVVCLLNNFYPREAKVQWKVDNALQSGNSQESVTEQDSKDSTYSLSSTLTLSKADYEKHKVYACEVTHQGLSSPVTKSFNRGEC | binding result [19]: binds; binding result [20]: binds; binding result [21]: binds; binding result [22]: binds
